Patent US20140193378A1 (UNIVERSITY OF MIAMI, published 2014)

What was measured:
[1] = target: T1, human GHRH receptor (human pituitary membrane homogenates) (human) (UniProt Q02643); test: radioligand competition vs 125I-JV-1-42 (0.2 nM), human pituitary membranes
T1 sequence (looked up): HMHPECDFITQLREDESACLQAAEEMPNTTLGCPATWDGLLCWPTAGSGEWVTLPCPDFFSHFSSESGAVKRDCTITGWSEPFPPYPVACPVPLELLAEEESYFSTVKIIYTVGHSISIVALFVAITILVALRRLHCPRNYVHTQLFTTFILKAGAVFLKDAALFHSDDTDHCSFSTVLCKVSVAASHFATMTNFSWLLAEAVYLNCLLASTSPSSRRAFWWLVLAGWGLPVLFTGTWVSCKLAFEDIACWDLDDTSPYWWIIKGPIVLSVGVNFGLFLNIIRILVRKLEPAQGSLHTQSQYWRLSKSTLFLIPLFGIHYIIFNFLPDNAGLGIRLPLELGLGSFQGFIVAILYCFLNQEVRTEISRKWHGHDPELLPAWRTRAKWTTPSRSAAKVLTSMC

[2] = target: T1, human GHRH receptor (human pituitary membrane homogenates) (human); test: radioligand competition vs [His1,125I-Tyr10,Nle27]hGHRH(1-32)NH2 (0.2 nM), human pituitary membranes
[3] = target: T1, human GHRH receptor (human pituitary membrane homogenates) (human); test: radioligand competition vs 125I-JV-1-42 (0.2 nM), human pituitary membranes; remark: listed apart in the source

Row | Substance | Relative affinity (Binding potency) vs JI-38 [1] [fold] | Relative affinity (Binding potency) vs GHRH [2] [fold] | Relative affinity (Binding potency) vs GHRH [3] [fold] | Relative affinity (Binding potency) vs JI-38 [3] [fold] | Relative affinity (Binding potency) vs JI-38 [2] [fold]
1 | P-27406 [N-Me-Tyr^1, Gln^8, Orn^12, Abu^15, Orn^21, Nle^27, Asp^28]hGHRH(1-29)NH-CH3 (peptide) | 14.5 | – | – | – | –
2 | JI-34 (peptide) | – | 4.32 | – | – | –
3 | P-27407 [Dat^1, Gln^8, Orn^12, Abu^15, Orn^21, Nle^27, Asp^28]hGHRH(1-29)NH-CH3 (peptide) | 1.45 | – | – | – | –
4 | JI-36 (peptide) | – | 3.25 | – | – | –
5 | P-20356 [N-Me-Tyr^1, Gln^8, Orn^12, Abu^15, Orn^21, Nle^27, Asp^28, Agm^29]hGHRH(1-29)NH2 (peptide) | 16.1 | – | 406 | 171 | –
6 | JI-38 (peptide) | – | 3.03 | 2.4 | 1 | 1
